The data set concerns N=C(N)NCCC[C@H](NC(=O)[C@H](Cc1ccccc1)NC(=O)OCc1ccccc1)C(=O)Nc1ccc([N+](=O)[O-])cc1. The experiment in a line: purified protein. To be noted: proenzyme heat-shocked 10 min at 56°C, then activated, assay at room temperature.

Chain of EP-B2 (Hordeum vulgare) (chain, as listed by the source): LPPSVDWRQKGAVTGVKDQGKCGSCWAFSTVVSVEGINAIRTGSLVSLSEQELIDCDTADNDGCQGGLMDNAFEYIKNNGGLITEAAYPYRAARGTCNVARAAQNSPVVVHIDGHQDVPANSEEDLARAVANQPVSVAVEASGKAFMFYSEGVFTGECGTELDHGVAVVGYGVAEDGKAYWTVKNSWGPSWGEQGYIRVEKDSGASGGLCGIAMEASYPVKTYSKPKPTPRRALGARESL
Chain of EP-B2 (Hordeum vulgare; K311A) (chain, as listed by the source K311A): as the sequence (chain, as listed by the source) above, with K178A counted along it

In the case of EP-B2 (Hordeum vulgare), the Michaelis constant (Km) was 530.0 µM and the Vmax was 0.142 µM/min.

Regarding EP-B2 (Hordeum vulgare; K311A), for the setting “variant M3”, the Km came to 1188 µM and the Vmax was found to be 0.236 µM/min.

What is called Km is the substrate concentration at which the rate is half of its maximum. Broadly, the Vmax is the top rate of the reaction or transport when substrate is in excess.

For the origin of these results see article PMC7040222.
